These results are taken from a protein production outcome set (Wang et al. 2014).

This data set can be described thus: label from the status in PepcDB records.
For “MTLYTNDYLEFYLTLVGWLINNGIWDMISDTGLFALPFLIIVVREWIKVRQEGADEGNKGVLSLARIETQLYIGYVVVSLCAIPVMSVGFDTLQFDQTRAKQCQVLLPAPGDTGWNTTFSSLTGKSARIPIWWAVMHSLSKGLNSGAVAAIPCGTDLRQMRMDVDAIRIDNPLLAQEVADFTHDCFGPSRARLFMRQPDLGAITKDPKTLQDLNWIGSRFLLNTSGYYDTDYSKTPRTAWPYDAKRDDGLPQVTGGGGYPTCKQWWSDGSIGLRDRLQAQVDPTLMNKLLGWAKWLSKDEVTDSMIRQVVSPSSQVNGDVYSDYGGQIGGTMWNGLARAGGTLGVGVGSLAYFPGMDIVRQALPMVMAFLKMAMVICLPLVLIIGAYQLKVAMTMSVVFFALIFVDFWFQLARWVDSTIIDVLYGSGSPHLSFDPVMGLNTTTQDAILNFVMGAMFIILPLFWMSALAWAGVQVSGVLEGLSRGTQSVERAGASGGGIAQQAVGSIGGKS”, the protein production entry is recorded as “failed”. With “MTMADETIILNVLGQYTRAHDRRDPDAMAALFAPEATIEIVDAVGGASRSISRLEGRDAIRVAVRQMMAPHGYRAWSQNVVNAPIIVIEGDHAVLDAQFMVFSILAAEVPDGGWPTGTFGAQGRIVPIEAGQYRLTLRTVADGWVISAMRIEHRLPMAFG”, the protein production entry was “not failed”. Take “MTMDGDSSTTDASQLGISADYIGGSHYVIQPHDDTEDSMNDHEDTNGSKESFREQDIYLPIANVARIMKNAIPQTGKIAKDAKECVQECVSEFISFITSEASERCHQEKRKTINGEDILFAMSTLGFDSYVEPLKLYLQKFREAMKGEKGIGGAVTATDGLSEELTEEAFTNQLPAGLITTDGQQQNVMVYTTSYQQISGVQQIQFS”: the protein production entry is on record as “failed”. For the sequence “MTMNPLPLQKEAEKRSPRLNSPFKSLMRIHWWMALAYLIVFCTGTLMVNLERGQFLRSELYDFHKSIGILTMALLTWRIFTLLQVWWRKYTKRPPKLSLAWWRTFTLHLSLYVFMGVIPISGFLLSNSFKANNVRFFSITLPDIFPQNEAMVEIGRNAHFWLAYTFLIFIFIHMLTYWKVIRANWRRWVNFIGKFQQQT”, the protein production entry is “failed”. Consider “MTMTLHTKASGMALLHQIQGNELEPLNRPQLKIPLERPLGEVYLDSSKPAVYNYPEGAAYEFNAAAAANAQVYGQTGLPYGPGSEAAAFGSNGLGGFPPLNSVSPSPLMLLHPPPQLSPFLQPHGQQVPYYLENEPSGYTVREAGPPAFYRPNSDNRRQGGRERLASTNDKGSMAMESAKETRYCAVCNDYASGYHYGVWSCEGCKAFFKRSIQGHNDYMCPATNQCTIDKNRRKSCQACRLRKCYEVGMMKGGIRKDRRGGRMLKHKRQRDDGEGRGEVGSAGDMRAANLWPSPLMIKRSKKNSLALSLTADQMVSALLDAEPPILYSEYDPTRPFSEASMMGLLTNLADRELVHMINWAKRVPGFVDLTLHDQVHLLECAWLEILMIGLVWRSMEHPVKLLFAPNLLLDRNQGKCVEGMVEIFDMLLATSSRFRMMNLQGEEFVCLKSIILLNSGVYTFLSSTLKSLEEKDHIHRVLDKITDTLIHLMAKAGLTLQQQHQRLAQLLLILSHIRHMSNKGMEHLYSMKCKNVVPLYDLLLEMLDAHRLHAPTSRGGASVEETDQSHLATAGSTSSHSLQKYYITGEAEGFPATV”, for which the protein production result is on record as “not failed”. “MTNAFSEELALEAAGLDAIFGKDFKAEETTTGHVRWSVPLSHNGVELELAFLLDSAYPLDSEPQVRVTCKEGLSLRAVRELEGHLQKVAAENRGSPSAYLLYTAAQDWIDTHDRREAAEAISATIASTRLSAREPDSAGTGTTFETKAESFTQLVEHETLEHATIDRTLGTPVTPETFAAWKQEFDKYLLENGILDIANNADIELDASQGGWKGNSRRKPTGRELFTMHREMFVDDFEESDQCESTASGACDTQGSELAEHVDASLFLS”: the protein production result is “failed”. Under “MTNDQIKKAKNGTYYFRANLGYDVKGKKIQKYRSGFKTKKEAREEYSRLLLMNPDDLNENKDKMMFEYYINEIFLPWYKTQVKLRTYENRIPTIQKHFPYFYKMAVSDIEPINVQDWQLKMTKNLKPSYVRAVQGLFSVAMDRAIVLGITTTNPSKIIGNVKKVKPKVEFWTKEEFEKVLSLIYKEDYYQNFLFISLWFLFMTGMRIGEATAIQWEDIDFETGVVSITKTLYYKSQIDYKFVEPKTKASVRHIVLDKVTLSYLADWREVQQNVVKTNFVMSYNGIPTQKHTIAHAIDRFSKMAGIHRIKIHALRHSHASLLISMGENPLIIKERLGHEDIETTLGTYGHLYPNSNFEVASKLNGIISFQPAEQNLDSSPKNQFTVNYRQNKQPNSAIKVQ” stands “failed”; under “MTNGKIWLVVKPTVGVPLFLSAAVIASVVIHAAVLTTTTWLPDYYQGSAKVAAE”, “failed”. “MTNHQKRLAVPKSWPVERKEEAYTTKAAAGPHGEEGVPLLIVLRDVLGYVDSKKEARYALEQDSILINGTAVSDERRPVGMFDILAFDEREEYYRIFPDEGGRLSLTPIDEDAAGSKLGKIVGKTQVAGGDTQLSLHDGETLLVEDATAYDTNDSIVVSNDGEEIVAHFTYEEGALVTAVSGAHAGRIGTIDEIQVTPGSSANNVLIDAENDDERFETVEEYVVVIDENFTDGGDDE”: the protein production entry is recorded as “failed”. For “MTNKRVVQTFLATSALFLAMSGMSARAQDASAPAAGAPAPSAAAPMHHHGSGFKKLDTNGDGMVSRDEAKGHRWLEDHFDEIDTNHDGQISKDELAAWHKTHAGEMRGKMQARLDAKFKAADKNGDGALTREEMQAGLPKLARHFDEIDANHDGKVTEDEIRAFMKARHDAHRAQHGTPAAAVTPGGPSATKGE”, the protein production entry is on record as “failed”. Under “MTNLDEFLEELSSIESHSQKIVKIDEHLKKLDEETKEDEDEDAAKIIQDRSTAREAEIALLMDLRQNFLPPPSMSSSSLQPPSSSTLAPSSSSSLQPPAPLIDFFRSSVSYSHQPPSSSTLATSSSPSLQPPSMSSSSLQPPASLREFFTSSVSYSHQPSSSSTLATSSFFPSSMPYSVRPPDSSDRPSLREFFPSSPSSSIQPPESSSSKRARLSNIFPSPLSSSPSPFVNPFLRPQAQEPTIPNFINPIPQISPGLPALFPNPNPNPNPNPIPNPIRNPDLVWTNRLQLVFDDAVVRLGGLFSATPKAINELISEEGLTGDQIRSHLQVLRDRQKAIADKLALE” stands “failed”; under “MTNLKLFNFEGSKVRTVILDEEPFFVGIDVASILGYSNPQKAMRDHCKKPAESLVNDSLGRPRRTLVLSESDVYRLVLRSDLPSAEKFENWLMDEVLPSIRKHGAYMTDDTIEKAITDPDFLIRLATNLKEEKSKRLEAEQKIEAQRPKVLFADAVSDTEGTILIRDLAKLIQQNGVDIGEKRLFEWLRQNGYLISRRGTDYNRPTQKSMELGLFKIKETAIMRSSGAHTAITAKVTGKGQLYFVNKFLEQSLVAN”, “failed”; under “MTNMFSLLYPLISIVIGVVPLFIFKRNAYLLGIAAASYFTAIILKEIIQLSFRSFFITPTLPTYLSYGILTAIFEPGFAYLYLVLTKAKVNGQLGLSYGSYLAFYENAIFLGLLSLPNYLLLSVQFSVLSLALYGLERISSFILHLFWGFSSALSASKKNIKYLSVSMPYGMVDSVAAYYQLSHNISLVSTEIISLVVSISCLPIIVLWYKMDKRNQRLD”, “failed”. Regarding “MTNPGDGAAGAADRATLDHWRPRLAAIAAAAGQDDAAHDLGHLRRVWDAARAMLQAHPEADALVVLAASYLHDLVNLPKNHPERHLASRQAAAAARERLARAGFPAARLDAVAHAIEAHSFSAGIAPRTIEARIVQDADRLDALGPVGLVRMFHVGGSLGRALAHPSDPLAAQRALDDSRYTLDHIEAKLARLPHGMQTEAGRRLGEQRLAWLRDFRAAFSAQWGGGQLRLEHHHHHH”, the protein production result was “failed”. “MTNTAAPATVSAGWADALLASFGQAGYAKAEPAILQPAEPFLDLSGEDIRKSLYLTTDAGGEELCLRPDLTIPVARDYLASSSAGKPAGFCYLGPVFRQRGGKRSEFLQAGIESFGRKDRAAADAEMLALALGATAAFGVAELDIRTGDVALFTALIDALDLYPVWRRRLIKDFNRKSDLAQDLEQLTLATATPRNEYEGVLAALAGSDRKAALALVTDLMSIAGASNVGGRSVAEIADRFLEQSTLKGGALPRDALDKIKRFLAISGSPGDALLQLRALAADAKLDIVAAIDEFEARIGFMAARGIDLSATRFSTSFGRGVDYYTGFEFELHRKDNGDEPLVAGGRYDGLLSQLGATAPIAAVGFSVWIEAFTDLAHPANSSAGSAT”: the protein production entry was “failed”. Consider “MTPAELISRLEEAWLNEKFSPELLENKSELVECVMEQLTHMEENLQRVRKGDLKASVHRMEIDRIRFVLSSFLRSRLKKIEKFFPHVLEKEKSRADGDPSFLSPEEFAFAKEYLANTEVYLRAVALKHMPPNLQSVDMMKAVPEPCLDSFVFLRVKEKQENILVEPETDEQREYVVDLDEGSQHLMRYRTIAPLVASGAVQLI”, for which the protein production entry is listed as “failed”. Regarding “MTPHPARSKISPYRDIEIFMDLEDWSARLKVFADATRVRLLALLEQEELTVAELSAITRLAQPRVSTHLAKLKEAGLVRDRRAGVSAYYRFDEVSLDPAQRALWLALSTGSDDPLLRQDAERVAAVLANRAADQNWADSVAGDMERHYSPGRTWEALARTALPLLETGDVLDIASGDGVLAELVAPHATRYICIDTSARVVAAASERLRKLRNVEVREGDMHALPFPDASFDLVVLMHALTYAAKPAQAVAESARVLRPGGRLLLCSLAKHEHRAAVQAYGHVNLGFAAKELRKFVEKAGLDVSNLESVTREKRPPHFEVISLIAMKPGIGNRESGLVEGKSNASRRANA”, the protein production result is on record as “failed”. Consider “MTPQIATILGLVIMFIVATALPINMGAVAFALAFIIGGVWVGLEGKEVLAGFPGDLFLTLVGITYLFAIAQKNGTIDLLVHWAVRAVRGRIVAIPWVMFVITGLLTAFGALGPAAVAIIGPVALRFAKQYRINPLMMGLLVIHGAQGGGFSPISVYGGITNKVVEKAGLDVSEMAVFLTSLGFNLMMAIICFCAFGGLKLMRRQELSLADAQYVAVAGDQASHRGFAIEGHGALVAPGGGTLSTDPLALEAVSITRDRVITLIGLLGLGVAALIYNLNVGLVSITVAVALALISPNAQKGAVDGISWSTVLLISGVVTYIAVLEKSGAVDYIGTGVSHIGMPLLGALLVCYVGGIVSAFASSAAVLGATIPLAVPFLMQGQLGAAGVICALAVSSTIVDVSPFSTNGALVVASAAKEERDGLFRRFLIYSGLVVLLGPLAAWLVFVVPGWL”, for which the protein production result is given as “failed”.

Consider “MTPRRHDNDYERRKWRQVAGHFGMGAAFGALFAGIVLFNNYFGLSSVIATSEAPTLVRIIFVVGVAGSFAFMAAITGFLFLVHED”, for which the protein production entry is reported as “failed”. Turning to “MTQAASAAPQSAHSAKWKWAKRAFTAFFFIAVPVLLFMLVKNLDWQEVKKALASYKASTLAIAAVVAFASYATYCGFDILARYYTRHKLSIKQIVPVTFVCYAFNLNLSSWVGGIALRYRLYSRLGLEVSTITRILSLSLITNWLGYMLLAGFVFSMRFLELPEEWSIGTTTLQLIGFGLLAVCFSYLLACRFSKKRSWTIRDQEFNLPSMKQALMQASLGALNWALMAAVIYTLLPDKAFYPAILGVLLISSIAGVITHIPAGLGVLETVFITLLSHQFSKGSLLAALIGYRAIYFLLPLMIALVVYLVLEKRAKKMGEKNQRRMGQEANS”, the protein production result is recorded as “failed”. For “MTQGTARAQQNNIPVGIALMLAATVVFALQDGISRHLASSYNTYMVVMIRYWFFAAFVIALAARSRGGLRAATRTAQPGLQIFRGLLLASEICVAVFAFTVLGLIESMAVFICYPLLVAALSGPVLGEKVGWRRWAAIGVGLVGVLIILQPGMGVFNPWAVVPLISALMFALYGLLTRYAARQDSTATSFFWTGVTGAVAMTAVGLWFWEPMSAPDWRWMALLCVSGALGHWLLIKCYEMAEASAVQPFAYFHLMWTAILGITVFGETLRSAVIIGAALIVAAGLFTLWRERAQSRSR” the value was “failed”. Regarding “MTQHRLNTSQWFGLLGWLVLCYAVAALGAMASIQAASFYAQLQRPAWAPPGWLFGSVWTVLYGMMAVSVWSVWRRGGWAGARVALTLFLVQLALNGLWSWLFFAWHLGAWAFTDIVALWLVLAATIGVFAKRQALAAWLLVPYLAWVSFAAALNFSVWQLNLQMLG”, the protein production result was “failed”.
